Test results from FireProtDB (doi:10.1021/bi0525223).

Settings: Lithobates pipiens, pH 5.5, sodium acetate 100 mM, reversible: Yes, whole UniProt chain shown

B1: Protein P-30 wild type, P22069 (protein)
chain: QDWLTFQKKHITNTRDVDCDNIMSTNLFHCKDKNTFIYSRPEPVKAICKGIIASKNVLTTSEFYLSDCNVTSRPCKYKLKKSTNKFCVTCENQAPVHFVGVGSC
**Q.** What does the source list for B1?
**A.** denaturant midpoint (higher = more stable) (20 °C, GdnHCl, Fluorescence): 4.4 M; Tm (Thermal, DSC): 88.5 °C
